Target: mixture of three Der p 2 specific recombinant human IgE clones H10, H12, P4E (human) (UniProt P01854)
Assay: RBL-SX38 IgE displacement, FACS

mixture of three Der p 2 specific recombinant human IgE clones H10, H12, P4E (human), sequence (P01854 other isoform, or with tags, fused parts or gaps): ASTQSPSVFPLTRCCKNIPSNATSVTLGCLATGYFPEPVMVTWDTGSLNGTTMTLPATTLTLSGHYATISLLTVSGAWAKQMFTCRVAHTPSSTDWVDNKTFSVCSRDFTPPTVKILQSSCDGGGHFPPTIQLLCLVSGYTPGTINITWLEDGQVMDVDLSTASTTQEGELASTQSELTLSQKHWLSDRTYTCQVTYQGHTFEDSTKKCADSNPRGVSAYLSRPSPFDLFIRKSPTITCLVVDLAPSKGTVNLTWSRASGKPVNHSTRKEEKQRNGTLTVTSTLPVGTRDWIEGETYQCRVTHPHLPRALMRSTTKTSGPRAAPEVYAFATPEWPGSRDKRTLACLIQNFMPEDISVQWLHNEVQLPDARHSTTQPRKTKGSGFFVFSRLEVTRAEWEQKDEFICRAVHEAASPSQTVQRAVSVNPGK

B1: NIgG4F6A1(G4S)1 (Fc fusion)
chain 1: DVQLQESGGGLVQAGGSLRLSCAASGLTFGSYDMGWYRQAPGKQRELVGRIRNDGITYYADSVKGRFTMSRDNAKNTVYLQMNSLKPEDTAVYYCAADGTGLGHYDYWGQGTQVTVSGGGGSGPPCPPCPAPEFLGGPSVFLFPPKPKDTLMISRTPEVTCVVVDVSQEDPEVQFNWYVDGVEVHNAKTKPREEQFNSTYRVVSVLTVLHQDWLNGKEYKCKVSNKGLPSSIEKTISKAKGQPREPQVYTLPPCQEEMTKNQVSLWCLVKGFYPSDIAVEWESNGQPENNYKTTPPVLDSDGSFFLYSRLTVDKSRWQEGNVFSCSVMHEALHNHYTQKSLSLSLGK
chain 2: EVQLLESGGGLVQPGGSLRLSCAASGFTFGNYDMAWVRQAPGKRPEWVSSIDTGGDITHYADSVKGRFTISRDNAKNTLYLQMNSLRPEDTAVYWCATDEEYALGPNEFDYYGQGTLVTVSSGGGGSGPPCPPCPAPEFLGGPSVFLFPPKPKDTLMISRTPEVTCVVVDVSQEDPEVQFNWYVDGVEVHNAKTKPREEQFNSTYRVVSVLTVLHQDWLNGKEYKCKVSNKGLPSSIEKTISKAKGQPREPQVCTLPPSQEEMTKNQVSLSCAVKGFYPSDIAVEWESNGQPENNYKTTPPVLDSDGSFFLVSRLTVDKSRWQEGNVFSCSVMHEALHNHYTQKSLSLSLGK
Work on B1 yielded an EC50 of 2.2 nM and a Max effect/effect 1 µM of 68%.

B2: NIgG4F6A1(RS) (Fc fusion)
chain 1: DVQLQESGGGLVQAGGSLRLSCAASGLTFGSYDMGWYRQAPGKQRELVGRIRNDGITYYADSVKGRFTMSRDNAKNTVYLQMNSLKPEDTAVYYCAADGTGLGHYDYWGQGTQVTVSRSGPPCPPCPAPEFLGGPSVFLFPPKPKDTLMISRTPEVTCVVVDVSQEDPEVQFNWYVDGVEVHNAKTKPREEQFNSTYRVVSVLTVLHQDWLNGKEYKCKVSNKGLPSSIEKTISKAKGQPREPQVYTLPPCQEEMTKNQVSLWCLVKGFYPSDIAVEWESNGQPENNYKTTPPVLDSDGSFFLYSRLTVDKSRWQEGNVFSCSVMHEALHNHYTQKSLSLSLGK
chain 2: EVQLLESGGGLVQPGGSLRLSCAASGFTFGNYDMAWVRQAPGKRPEWVSSIDTGGDITHYADSVKGRFTISRDNAKNTLYLQMNSLRPEDTAVYWCATDEEYALGPNEFDYYGQGTLVTVSSRSGPPCPPCPAPEFLGGPSVFLFPPKPKDTLMISRTPEVTCVVVDVSQEDPEVQFNWYVDGVEVHNAKTKPREEQFNSTYRVVSVLTVLHQDWLNGKEYKCKVSNKGLPSSIEKTISKAKGQPREPQVCTLPPSQEEMTKNQVSLSCAVKGFYPSDIAVEWESNGQPENNYKTTPPVLDSDGSFFLVSRLTVDKSRWQEGNVFSCSVMHEALHNHYTQKSLSLSLGK
With B2 the EC50 was 3.2 nM and the Max effect/effect 1 µM was 26%.

B3: CIgG4F5A1(G4S)3 (Fc fusion)
chain 1: GPPCPPCPAPEFLGGPSVFLFPPKPKDTLMISRTPEVTCVVVDVSQEDPEVQFNWYVDGVEVHNAKTKPREEQFNSTYRVVSVLTVLHQDWLNGKEYKCKVSNKGLPSSIEKTISKAKGQPREPQVYTLPPCQEEMTKNQVSLWCLVKGFYPSDIAVEWESNGQPENNYKTTPPVLDSDGSFFLYSRLTVDKSRWQEGNVFSCSVMHEALHNHYTQKSLSLSLGKGGGGSGGGGSGGGGSDVQLQESGGGLVQPGGSLRLSCAASGSIFSIDIMGWYRQAPGKQRELVATMPEGNYINYADSVKGRLTLSRDKGKNTVYLQLNSLKPEDTAVYYCYGFGVREGRGNVYWGQGTQVTVS
chain 2: GPPCPPCPAPEFLGGPSVFLFPPKPKDTLMISRTPEVTCVVVDVSQEDPEVQFNWYVDGVEVHNAKTKPREEQFNSTYRVVSVLTVLHQDWLNGKEYKCKVSNKGLPSSIEKTISKAKGQPREPQVCTLPPSQEEMTKNQVSLSCAVKGFYPSDIAVEWESNGQPENNYKTTPPVLDSDGSFFLVSRLTVDKSRWQEGNVFSCSVMHEALHNHYTQKSLSLSLGKGGGGSGGGGSGGGGSEVQLLESGGGLVQPGGSLRLSCAASGFTFGNYDMAWVRQAPGKRPEWVSSIDTGGDITHYADSVKGRFTISRDNAKNTLYLQMNSLRPEDTAVYWCATDEEYALGPNEFDYYGQGTLVTVSS
Work on B3 yielded a Max effect/effect 1 µM of 27%.

— patent US20250171562A1
